This note sets out measurements from US20230105324A1 (Hoffmann-La Roche, published 2023).

Where a chain is given by its changes, count along the chain named. Read-outs that look alike come from different tables or passages of the source.

The target in assay [1] is T1, human VEGF121-His (human, UniProt P15692 207-395).
T1 construct: Captured by an anti-His antibody on the chip; not shown: His tag
T1 sequence: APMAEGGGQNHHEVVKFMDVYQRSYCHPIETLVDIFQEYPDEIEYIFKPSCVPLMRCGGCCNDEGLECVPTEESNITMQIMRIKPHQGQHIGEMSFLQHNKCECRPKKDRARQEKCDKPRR
The assay can be described thus: SPR, VEGF121-His captured via anti-His antibody on C1 chip, Fab as analyte, single cycle kinetics. The protocol: (§1) An anti-His capturing antibody (GE Healthcare 28995056) was immobilized to a Series S Sensor Chip C1 (GE Healthcare 29104990) using standard amine coupling chemistry resulting in a surface densitiy of approximately 500 resonance units (RU). As running and dilution buffer, HBS-P+ (10 mM HEPES, 150 mM NaCl pH 7.4, 0.05% Surfactant P20) was used. […] The surface was regenerated by injecting 10 mM Glycine pH 1.5 for 60s. […] Curve fitting was performed using the 1:1 Langmuir binding model within the Biacore evaluation software. To provide more robust fitting, the Multiple Rmax option was chosen for global fitting using both ligand densities.
(Surface plasmon resonance follows binding to a sensor surface in real time, without labels.)

The target in assay [2] is T1, human VEGF121-His. The assay is described as above. The protocol: as §1
The source holds these as a separate data set.

Assay [3] addresses T2, human PDGF-BB (human).
T2 construct: The ELISA text names human PDGF-BB of Cell Signaling, Cat. No 8921BF
T2 chain: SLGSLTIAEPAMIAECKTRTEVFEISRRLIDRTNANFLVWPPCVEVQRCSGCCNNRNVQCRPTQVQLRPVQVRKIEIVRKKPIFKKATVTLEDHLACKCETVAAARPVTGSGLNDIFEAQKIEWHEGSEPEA
The assay can be described thus: SPR, Fab fragment; assay format for PDGF not described.

Assay [4] deals with T2, human PDGF-BB. Described as above.
In a further assay the target is T3, minipig PDGF (minipig).
T3 construct: Printed only as minipig PDGF; also called Minpig PDGF
T3 sequence (P20034 whole entry, looked up): SLGSPAVAEPAVIAE
The description is as above.

Another assay concerns the target T4, rabbit PDGF (rabbit).
T4 construct: Printed only as rabbit PDGF
The assay is described as above.

A further assay concerns the target T5, cynomolgus PDGF (cynomolgus).
T5 construct: Printed only as cynomolgus PDGF
Described as above.

Assay [5] addresses T2, human PDGF-BB. The description is as above.

B1: bispecific anti-VEGF/anti-PDGF-B Fab fragment P1AE2845 (Fab, V domains shown)
VH: EEQLVESGGGLVQPGGSLRLSCAASGWWFEYTDMSWVRQAPGQGLEWVGSISPSGGSTYYNTNFIGRFTISRDDSKNTLYLQMNSLRDEDTAVYYCARDEGYFDEWGQGTLVTVSS
VL: AIQMTQSPSSLSASVGDRVTITCQASYWLHKYLAWYQQKPGQAPKLLIYDASELEYGVPDRFSGSGSGTDFTLTISSLEPEDFAVYYCQNYRYHPYTFGQGTKLEIKR
notes: DutaFab: one VH/VL pair carries both paratopes; Expressed in E. coli TG1
As for B1, in the assay with human VEGF121-His [1], the Kd (as a rule, the constant that tells how readily two partners part at equilibrium) is 0.13 nM; the koff (as a rule, a measure of how fast the partners let go of each other) came out at 6.54e-05 s⁻¹; the kon (as a rule, a measure of how fast the partners come together) came to 503000 M⁻¹ s⁻¹; the t½ – broadly, the time needed for the level to fall by half in the phase considered – turned out to be 177 min. In the assay with human VEGF121-His [2], this molecule returned a Kd of 0.13 nM, a koff of 6.54e-05 s⁻¹, a kon of 503000 M⁻¹ s⁻¹ and a t½ of 177 min. Moreover, in the assay with human PDGF-BB [3], binding was put at a Kd of 95 nM, the koff was determined as 0.0779 s⁻¹, the kon turned out to be 824000 M⁻¹ s⁻¹ and the t½ is 0.1 min. In the assay with human PDGF-BB [4], this molecule returned a Kd of 95 nM, a koff of 0.0779 s⁻¹, a kon of 824000 M⁻¹ s⁻¹ and a t½ of 0.1 min.

B2: bispecific anti-VEGF/anti-PDGF-B Fab fragment RO7113083 (Fab, V domains shown)
VH: DLQLVESGGGLVKPGGSLRLSCAADGWWFGYTDMSWVRQAPGKGLEWVGSISYKGGSTYYNTKFIGRFTISRDDDTNTLYLQMNSLRAEDTAVYYCARDDGYFDTWGQGTLVTVSS
VL: AIYMHQEPSSLSASVGDRVTITCHGSYWLSNYLAWYQQKPGKAPKLLIYDGKEREHGVPSRFSGSGSHEDYTLTISSLQPEDFATYYCQQYRYHPYTFGHGTKVEIKR
notes: also called R07113083
On to B2, for which the Kd with minipig PDGF was 0.3 nM; with rabbit PDGF, 0.6 nM; with cynomolgus PDGF, 0.7 nM; in the assay with human PDGF-BB [3], 1 nM; in the assay with human PDGF-BB [5] it was 1.3 nM. For the same molecule, the t½ in the assay with minipig PDGF stood at 59 min; in the assay with rabbit PDGF, 59 min; with cynomolgus PDGF, 53 min; with human PDGF-BB [3], 90 min; in the assay with human PDGF-BB [5] it was 25 min.

B3: bispecific anti-VEGF/anti-PDGF-B Fab fragment 28.07 (Fab, V domains shown)
VH: B2 VH with S57H, T58K, Y60L
VL: B2 VL
For the molecule B3, the Kd worked out at 0.012 nM with human VEGF121-His [1]; 0.3 nM with minipig PDGF; 0.7 nM with rabbit PDGF; 0.6 nM in the assay with cynomolgus PDGF; 1.4 nM in the assay with human PDGF-BB [5]. For the same molecule, the koff with human VEGF121-His [1] is 1.73e-05 s⁻¹; with minipig PDGF, 0.000225 s⁻¹; with rabbit PDGF it was 0.000223 s⁻¹; with cynomolgus PDGF, 0.000215 s⁻¹; with human PDGF-BB [5], 0.000483 s⁻¹. In addition, the kon with human VEGF121-His [1] came out at 1.4e+06 M⁻¹ s⁻¹; with minipig PDGF, 646000 M⁻¹ s⁻¹; in the assay with rabbit PDGF it was 337000 M⁻¹ s⁻¹; with cynomolgus PDGF, 336000 M⁻¹ s⁻¹; with human PDGF-BB [5] it was 357000 M⁻¹ s⁻¹. Also, the t½ with human VEGF121-His [1] turned out to be 668 min; in the assay with minipig PDGF, 51 min; with rabbit PDGF it was 52 min; in the assay with cynomolgus PDGF it was 54 min; with human PDGF-BB [5], 24 min.

B4: bispecific anti-VEGF/anti-PDGF-B Fab fragment 28.01 (Fab, V domains shown)
VH: B2 VH
VL: B2 VL with Y3H, H5Y
As to B4, the Kd with minipig PDGF came to 0.3 nM; with rabbit PDGF, 0.6 nM; with cynomolgus PDGF, 0.6 nM; with human PDGF-BB [5], 1.3 nM. The t½ came to 69 min in the assay with minipig PDGF, 67 min with rabbit PDGF, 54 min in the assay with cynomolgus PDGF and 26 min with human PDGF-BB [5].

B5: bispecific anti-VEGF/anti-PDGF-B Fab fragment P1AA9124 (Fab, V domains shown)
VH: B2 VH
VL: B2 VL with Y3Q, H5T, E7S, H100Q, V104L
For B5, the Kd with minipig PDGF was determined as 0.4 nM; in the assay with rabbit PDGF, 0.7 nM; with cynomolgus PDGF, 0.6 nM; in the assay with human PDGF-BB [3] it was 1 nM. In addition, the t½ in the assay with minipig PDGF was found to be 48 min; with rabbit PDGF, 48 min; in the assay with cynomolgus PDGF, 52 min; with human PDGF-BB [3] it was 44 min; with human PDGF-BB [5], 24 min.

B6: bispecific anti-VEGF/anti-PDGF-B Fab fragment 28.02 (Fab, V domains shown)
VH: B2 VH with S57H, T58K, Y60L
VL: B2 VL with Y3H, H5Y
In the assay with human VEGF121-His [1], B6 returned a Kd of 0.007 nM, a koff of 1.15e-05 s⁻¹, a kon of 1.56e+06 M⁻¹ s⁻¹ and a t½ of 1010 min. Moreover, in the assay with minipig PDGF, the affinity, expressed as Kd, was 0.4 nM; the koff came to 0.000215 s⁻¹; the kon was 605000 M⁻¹ s⁻¹; the t½ came to 54 min. In the assay with rabbit PDGF, this molecule returned a Kd of 0.7 nM, a koff of 0.000218 s⁻¹, a kon of 325000 M⁻¹ s⁻¹ and a t½ of 53 min. For the same molecule, in the assay with human PDGF-BB [5], the Kd turned out to be 1.3 nM, the koff worked out at 0.000485 s⁻¹, the kon worked out at 368000 M⁻¹ s⁻¹ and the t½ is 24 min.
